Percent of GBA activity eluted after the start of the M6P gradient (retained on the receptor column), percent of the retained GBA activity eluted only after the addition of 5 mM M6P and percent of sample eluted prior to the start of the M6P gradient (not retained on the receptor column) data for two substances are collected here from patent US20030133924A1.

Test [1] concerns the target Mannose 6-phosphate (M6P) receptor purified from bovine liver, coupled to NHS-Sepharose 4B FF resin (bovine). The test is described as follows: M6P receptor affinity column, 0-1 mM then 5 mM M6P elution; GBA activity in fractions (FIG. 1B).
Test [2] shares this target. Briefly: M6P receptor affinity column, 0-1 mM then 5 mM M6P elution; GBA activity in fractions (FIG. 1A).

Sequence of Mannose 6-phosphate (M6P) receptor purified from bovine liver, coupled to NHS-Sepharose 4B FF resin (bovine) (P08169 45-2499): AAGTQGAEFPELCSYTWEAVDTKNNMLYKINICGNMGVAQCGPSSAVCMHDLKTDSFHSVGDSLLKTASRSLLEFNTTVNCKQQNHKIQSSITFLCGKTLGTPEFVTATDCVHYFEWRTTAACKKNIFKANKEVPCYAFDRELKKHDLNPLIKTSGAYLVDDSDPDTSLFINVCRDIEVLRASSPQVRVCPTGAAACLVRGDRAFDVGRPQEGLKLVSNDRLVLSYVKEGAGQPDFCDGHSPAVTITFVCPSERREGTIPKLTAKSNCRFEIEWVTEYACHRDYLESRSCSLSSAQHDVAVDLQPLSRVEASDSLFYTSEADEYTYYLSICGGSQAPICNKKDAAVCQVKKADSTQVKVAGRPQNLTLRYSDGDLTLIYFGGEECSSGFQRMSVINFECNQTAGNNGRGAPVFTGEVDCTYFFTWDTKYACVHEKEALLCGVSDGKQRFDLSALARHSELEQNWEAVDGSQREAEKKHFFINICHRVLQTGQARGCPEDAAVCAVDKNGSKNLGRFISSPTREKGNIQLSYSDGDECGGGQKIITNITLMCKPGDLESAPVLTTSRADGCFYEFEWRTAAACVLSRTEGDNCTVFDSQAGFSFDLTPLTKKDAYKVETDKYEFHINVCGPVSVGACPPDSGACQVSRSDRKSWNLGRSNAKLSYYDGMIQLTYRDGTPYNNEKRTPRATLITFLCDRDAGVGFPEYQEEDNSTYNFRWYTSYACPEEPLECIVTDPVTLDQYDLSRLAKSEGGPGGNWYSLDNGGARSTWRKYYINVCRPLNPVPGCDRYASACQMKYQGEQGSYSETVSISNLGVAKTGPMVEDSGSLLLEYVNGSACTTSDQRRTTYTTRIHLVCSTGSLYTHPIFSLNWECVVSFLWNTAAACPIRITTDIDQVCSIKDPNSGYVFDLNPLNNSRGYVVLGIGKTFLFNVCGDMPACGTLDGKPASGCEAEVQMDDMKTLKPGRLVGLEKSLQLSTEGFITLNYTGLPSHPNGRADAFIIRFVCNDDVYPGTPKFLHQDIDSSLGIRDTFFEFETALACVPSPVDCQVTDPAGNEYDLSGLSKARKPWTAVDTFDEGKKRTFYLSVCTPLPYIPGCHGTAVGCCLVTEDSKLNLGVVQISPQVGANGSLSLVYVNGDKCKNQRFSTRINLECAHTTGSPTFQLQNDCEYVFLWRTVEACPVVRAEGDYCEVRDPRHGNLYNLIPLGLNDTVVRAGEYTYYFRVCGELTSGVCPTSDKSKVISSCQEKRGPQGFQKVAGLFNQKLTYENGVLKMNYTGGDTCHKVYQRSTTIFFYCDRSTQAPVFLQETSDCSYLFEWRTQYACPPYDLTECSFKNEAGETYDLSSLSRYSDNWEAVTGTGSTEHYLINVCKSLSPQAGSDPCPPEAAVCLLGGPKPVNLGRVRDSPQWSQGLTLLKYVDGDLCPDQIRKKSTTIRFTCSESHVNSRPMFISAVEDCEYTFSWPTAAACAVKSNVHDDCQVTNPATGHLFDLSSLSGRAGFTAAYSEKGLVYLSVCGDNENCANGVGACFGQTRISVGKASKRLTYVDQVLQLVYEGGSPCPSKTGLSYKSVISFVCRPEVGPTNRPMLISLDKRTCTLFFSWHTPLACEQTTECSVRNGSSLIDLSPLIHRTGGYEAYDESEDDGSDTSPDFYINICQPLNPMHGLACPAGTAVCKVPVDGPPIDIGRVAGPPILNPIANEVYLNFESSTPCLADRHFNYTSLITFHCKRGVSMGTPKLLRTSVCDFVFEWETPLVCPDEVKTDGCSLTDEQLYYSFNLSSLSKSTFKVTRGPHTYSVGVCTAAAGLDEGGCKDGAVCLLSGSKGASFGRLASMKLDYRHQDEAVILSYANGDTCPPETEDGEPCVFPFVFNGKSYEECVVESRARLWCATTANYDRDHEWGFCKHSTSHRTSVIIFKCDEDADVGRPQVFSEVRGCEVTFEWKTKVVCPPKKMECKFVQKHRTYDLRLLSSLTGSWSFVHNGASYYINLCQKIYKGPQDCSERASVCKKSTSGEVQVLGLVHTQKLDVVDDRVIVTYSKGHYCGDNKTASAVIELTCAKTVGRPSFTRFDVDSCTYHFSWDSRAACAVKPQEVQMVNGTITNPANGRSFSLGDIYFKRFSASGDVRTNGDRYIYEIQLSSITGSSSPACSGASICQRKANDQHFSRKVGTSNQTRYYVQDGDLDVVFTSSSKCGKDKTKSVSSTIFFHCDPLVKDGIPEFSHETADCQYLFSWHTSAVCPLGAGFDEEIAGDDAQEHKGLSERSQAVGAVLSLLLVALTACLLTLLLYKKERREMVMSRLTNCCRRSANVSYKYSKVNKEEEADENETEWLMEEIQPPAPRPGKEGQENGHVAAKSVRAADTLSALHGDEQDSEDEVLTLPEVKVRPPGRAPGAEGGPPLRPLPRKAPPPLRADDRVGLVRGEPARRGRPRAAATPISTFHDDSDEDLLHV

Take “highly phosphorylated human acid β-glucocerebrosidase (HP-GBA), treated with GlcNAc-phosphotransferase and uncovering enzyme (from UniProt P04062 40-536)”: in test [1], the percent of GBA activity eluted after the start of the M6P gradient (retained on the receptor column) was found to be 77% and the percent of the retained GBA activity eluted only after the addition of 5 mM M6P was determined as 35%.

“human acid β-glucocerebrosidase (GBA), partially purified, before phosphorylation (from UniProt P04062 40-536) (enzyme)” returned a percent of sample eluted prior to the start of the M6P gradient (not retained on the receptor column) in test [2] above 99%.
